The values that follow come from patent US5945329A, “Customized proteases” (Carlsberg A/S, priority 1997, dated 1999).

Substrate in data set [1]: CC(C)C[C@H](NC(=O)[C@H](Cc1ccccc1)NC(=O)OCc1ccccc1)C(=O)O
Kind of data set: Hydrolysis of CBZ-X-Leu-OH substrates. In kind it is biochemical, yeast. The following applies: other: Table X, hydrolysis at 25° C., 10 mM sodium phosphate pH 6.5. As to the method: (§1) Over-expression of selected mutant enzymes was performed according to Nielsen et al. (1990) cited supra. The mutant BamHI-BamHI PRC1 fragments of pYSP32 were inserted into the GAL expression vector pRA21 and introduced into yeast strain K2579LLR. The plasmid pRA21 is derived from p72UG (Nielsen et al. (1990) cited supra) by replacing the 918 bp BglII-SalI fragment with the 638 bp BglII-PvuII fragment of pWI3, thereby deleting the BamHI site downstream of the PRC1 gene. Mutant forms of CPD-Y were purified from culture supernatants by affinity chromatography as described in Example 1. Kinetic parameters were determined by measuring rates of hydrolysis at 25° C. of CBZ-X-Leu-OH substrates spectrophotometrically at 224 nm in 10 mM sodium phosphate buffer pH 6.5. The concentrations of substrates ranged from 0.01 to 0.5 mM. Accurate measurements were not possible with substrate concentrations exceeding 0.5 mM due to the high absorption of the substrate.

Substrate in data set [2]: CC(C)C[C@H](NC(=O)[C@H](CCCCN)NC(=O)OCc1ccccc1)C(=O)O
Kind of data set: Hydrolysis of CBZ-X-Leu-OH substrates. In kind it is biochemical, yeast. Particulars: other: Table X and text, hydrolysis at 25° C., 10 mM sodium phosphate pH 6.5. As to the method:
as §1

Substrate in data set [3]: CC(C)C[C@H](NC(=O)[C@H](CO)NC(=O)OCc1ccccc1)C(=O)O
Kind of data set: Hydrolysis of CBZ-X-Leu-OH substrates. The data set is classed as biochemical, yeast. Particulars: other: Table X, hydrolysis at 25° C., 10 mM sodium phosphate pH 6.5. Here is the method:
as §1

Substrate in data set [4]: CC(C)C[C@H](NC(=O)[C@H](C)NC(=O)OCc1ccccc1)C(=O)O
The data set can be described thus: Hydrolysis of CBZ-X-Leu-OH substrates. The data set is classed as biochemical, yeast. Particulars: other: Table X, hydrolysis at 25° C., 10 mM sodium phosphate pH 6.5. As to the method:
as §1

Substrate in data set [5]: CC(C)C[C@H](NC(=O)[C@H](CCC(=O)O)NC(=O)OCc1ccccc1)C(=O)O
The data set can be described thus: Hydrolysis of CBZ-X-Leu-OH substrates. In kind it is biochemical, yeast. Particulars: other: Table X and text, hydrolysis at 25° C., 10 mM sodium phosphate pH 6.5. Here is the method: as §1

Substrate in data set [6]: CC(C)[C@H](NC(=O)[C@H](Cc1ccccc1)NC(=O)C=Cc1ccco1)C(=O)O
The data set can be described thus: purified protein, by the assay type. The following applies: other: hydrolysis of FA-Phe-Val-OH.

By Km is commonly meant the concentration of substrate that gives half-maximal velocity. For orientation: kcat/Km means the turnover number divided by the Michaelis constant.

B1: yeast carboxypeptidase Y (CPD-Y), wild type (SEQ ID NO:32) (Saccharomyces cerevisiae S288C) (protein)
chain: KIKDPKILGIDPNVTQYTGYLDVEDEDKHFFFWTFESRNDPAKDPVILWLNGGPGCSSLTGLFFELGPSSIGPDLKPIGNPYSWNSNATVIFLDQPVNVGFSYSGSSGVSNTVAAGKDVYNFLELFFDQFPEYVNKGQDFHIAGESYAGHYIPVFASEILSHKDRNFNLTSVLIGNGLTDPLTQYNYYEPMACGEGGEPSVLPSEECSAMEDSLERCLGLIESCYDSQSVWSCVPATIYCNNAQLAPYQRTGRNVYDIRKDCEGGNLCYPTLQDIDDYLNQDYVKEAVGAEVDHYESCNFDINRNFLFAGDWMKPYHTAVTDLLNQDLPILVYAGDKDFICNWLGNKAWTDVLPWKYDEEFASQKVRNWTASITDEVAGEVKSYKHFTYLRVFNGGHMVPFDVPENALSMVNEWIHGGFSL
notes: purchased Carlbiotech, Copenhagen, Denmark
With B1, the Michaelis-Menten constant (Km) stood at 36 µM in data set [1], 70 µM in data set [3], 700 µM in data set [4] and 47 µM in data set [6]. Moreover, the kcat was 13600 mM/min/mM in data set [1], 800 mM/min/mM in data set [3] and 25000 mM/min/mM in data set [4]. In addition, the kcat/Km in data set [1] is 380,000 min^-1 mM^-1; in data set [2], 400 M⁻¹ s⁻¹; in data set [3], 12,000 min^-1 mM^-1; in data set [4], 36,000 min^-1 mM^-1; in data set [5], 7330 M⁻¹ s⁻¹.
